Assay [1] has as its target 30Kc19 C76A protein (Bombyx mori). Briefly: native gel or EMSA. (Mobility shift assays separate free from complexed probe on a gel.)
Assay [2] addresses recombinant 30Kc19 protein (Bombyx mori). Briefly: native gel or EMSA.
Assay [3] has the same target. The experiment in a line: native gel or EMSA. The source holds these as a separate data set.
For assay [4] the target is unchanged. The experiment in a line: native gel or EMSA. This is another data set of the same source.
The target is the same in assay [5]. Briefly: non-reducing SDS-PAGE.

The substance 30Kc19 C76A protein (natural protein) displayed a stoichiometry N in assay [1] of 2.
Regarding “recombinant 30Kc19 protein (natural protein)”, the stoichiometry N in assay [2], in assay [3], in assay [4] and in assay [5] was 2 throughout.

In general, stoichiometry N refers to the number of molecules, sites or subunits per partner or assembly.

The values above are taken from article PMC4283735.
